Where a chain is given by its changes, count along the chain named.
T1: human FcγRIIa type H extracellular domain with C-terminal His tag (human, UniProt P12318 34-217)
T1 construct: extracellular domain; also called FcgRIIaH; FcγRIIa H
T1 sequence (looked up): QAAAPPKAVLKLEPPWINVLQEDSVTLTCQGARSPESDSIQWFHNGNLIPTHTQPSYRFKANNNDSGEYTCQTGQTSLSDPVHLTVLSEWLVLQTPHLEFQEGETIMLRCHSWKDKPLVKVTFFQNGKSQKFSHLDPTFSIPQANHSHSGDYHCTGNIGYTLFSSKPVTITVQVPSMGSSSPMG

T2: human FcγRIIb extracellular domain with C-terminal His tag (human, UniProt P31994 43-217)
T2 construct: extracellular domain; For crystals it was expressed with kifunensine and trimmed with Endo F1; also called FcgRIIb; FcγRIIb extracellular region
T2 sequence (looked up): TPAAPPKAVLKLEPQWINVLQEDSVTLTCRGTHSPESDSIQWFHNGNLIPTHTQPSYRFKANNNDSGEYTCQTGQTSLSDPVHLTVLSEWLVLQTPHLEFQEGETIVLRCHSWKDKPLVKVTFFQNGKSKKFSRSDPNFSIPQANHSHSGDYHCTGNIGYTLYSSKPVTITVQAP

B1: IL6R-BP201/IL6R-L (antibody, human IgG1, kappa, name in EU numbering)
heavy: QVQLQESGPGLVKPSETLSLTCAVSGHSISHDHAWSWVRQPPGEGLEWIGFISYSGITNYNPSLQGRVTISRDNSKNTLYLQMNSLRAEDTAVYYCARSLARTTAMDYWGEGTLVTVSSASTKGPSVFPLAPSSKSTSGGTAALGCLVKDYFPEPVTVSWNSGALTSGVHTFPAVLQSSGLYSLSSVVTVPSSSLGTQTYICNVNHKPSNTKVDKKVEPKSCDKTHTCPPCPAPDLLGDDSVFLFPPKPKDTLMISRTPEVTCVVVDVSHEDGEVKFNWYVDGVEVHNAKTKPREEQYNSTYRVVSVLTVLHQDWLNGKEYKCKVSNKALPRPIEKTISKAKGQPREPQVYTLPPSRDELTKNQVSLTCLVKGFYPSDIAVEWESNGQPENNYKTTPPVLDSDGSFFLYSKLTVDKSRWQQGNVFSCSVMHEALHNHYTQESLSLSP
light: not shown
B2: IL6R-BP205/IL6R-L (antibody, human IgG1, kappa, name in EU numbering)
heavy: B1 heavy with D239G, Y298D
light: not shown
B3: IL6R-BP151/IL6R-L (antibody, human IgG1, kappa, name in EU numbering)
heavy: B1 heavy with L236Y, G273P, K328A
light: not shown
B4: IL6R-BP084/IL6R-L (antibody, human IgG1, kappa, name in EU numbering)
heavy: B1 heavy with D235E, D239G, G273P, V325M, R332K
light: not shown
B5: IL6R-BP191/IL6R-L (antibody, human IgG1, kappa, name in EU numbering)
heavy: B1 heavy with D239G, H270D, K328A, R332K
light: not shown
B6: IL6R-BP152/IL6R-L (antibody, human IgG1, kappa, name in EU numbering)
heavy: B1 heavy with L236Y, G273P, Y298D, K328A
light: not shown
B7: IL6R-BP190/IL6R-L (antibody, human IgG1, kappa, name in EU numbering)
heavy: B1 heavy with D235E, H270D, R332K
light: not shown
B8: IL6R-BP083/IL6R-L (antibody, human IgG1, kappa, name in EU numbering)
heavy: B1 heavy with D235E, D239G, G273P, Y298D, R332K
light: not shown
B9: IL6R-BP188/IL6R-L (antibody, human IgG1, kappa, name in EU numbering)
heavy: B1 heavy with H270D, R332K
light: not shown
B10: IL6R-BP087/IL6R-L (antibody, human IgG1, kappa, name in EU numbering)
heavy: B1 heavy with D235E, L236Y, D239G, G273P, R332K
light: not shown
B11: IL6R-BP130/IL6R-L (antibody, human IgG1, kappa, name in EU numbering)
heavy: B1 heavy with D239G, G273P, V325M, R332K
light: not shown
B12: IL6R-BP176/IL6R-L (antibody, human IgG1, kappa, name in EU numbering)
heavy: B1 heavy with D239G, G273P, K328D, R332K
light: not shown
B13: IL6R-BP085/IL6R-L (antibody, human IgG1, kappa, name in EU numbering)
heavy: B1 heavy with D235E, G273P, R332K
light: not shown
B14: IL6R-BP182/IL6R-L (antibody, human IgG1, kappa, name in EU numbering)
heavy: B1 heavy with D239G, Y298D, R332K
light: not shown
B15: IL6R-BP212/IL6R-L (antibody, human IgG1, kappa, name in EU numbering)
heavy: B1 heavy with D239G, H270D, Y298D
light: not shown
B16: IL6R-BP202/IL6R-L (antibody, human IgG1, kappa, name in EU numbering)
heavy: B1 heavy with D235E, K328A
light: not shown
B17: IL6R-BP211/IL6R-L (antibody, human IgG1, kappa, name in EU numbering)
heavy: B1 heavy with D239G, H270D, K328A
light: not shown
B18: IL6R-2B261/IL6R-L (antibody, human IgG1, kappa, name in EU numbering)
heavy: B1 heavy with D239G, G273P, Y298D, R332A
light: not shown
B19: IL6R-BP131/IL6R-L (antibody, human IgG1, kappa, name in EU numbering)
heavy: B1 heavy with G273P, R332K
light: not shown
B20: IL6R-2B253/IL6R-L (antibody, human IgG1, kappa, name in EU numbering)
heavy: B1 heavy with D239G, G273P, V325M, R332A
light: not shown
B21: IL6R-BP086/IL6R-L (antibody, human IgG1, kappa, name in EU numbering)
heavy: B1 heavy with D235E, D239G, G273P, K328A, R332K
light: not shown
B22: IL6R-BP088/IL6R-L (antibody, human IgG1, kappa, name in EU numbering)
heavy: B1 heavy with D235E, G273P, K328A, R332K
light: not shown
B23: IL6R-BP193/IL6R-L (antibody, human IgG1, kappa, name in EU numbering)
heavy: B1 heavy with D239G, H270D, R332K
light: not shown
B24: IL6R-BP210/IL6R-L (antibody, human IgG1, kappa, name in EU numbering)
heavy: B1 heavy with D235E, H270D
light: not shown
B25: IL6R-BP204/IL6R-L (antibody, human IgG1, kappa, name in EU numbering)
heavy: B1 heavy with D239G, K328A
light: not shown
B26: IL6R-BP195/IL6R-L (antibody, human IgG1, kappa, name in EU numbering)
heavy: B1 heavy with L236Y, H270D, Y298D, K328A, R332K
light: not shown
notes: Same printed alterations as IL6R-BP197
B27: IL6R-BP082/IL6R-L (antibody, human IgG1, kappa, name in EU numbering)
heavy: B1 heavy with D239G, G273P, R332K
light: not shown
B28: IL6R-BP089/IL6R-L (antibody, human IgG1, kappa, name in EU numbering)
heavy: B1 heavy with D235E, L236Y, D239G, G273P, K328A, R332K
light: not shown
B29: IL6R-BP129/IL6R-L (antibody, human IgG1, kappa, name in EU numbering)
heavy: B1 heavy with D239G, G273P, Y298D, R332K
light: not shown
B30: IL6R-BP133/IL6R-L (antibody, human IgG1, kappa, name in EU numbering)
heavy: B1 heavy with L236Y, D239G, G273P, R332K
light: not shown
B31: IL6R-BP132/IL6R-L (antibody, human IgG1, kappa, name in EU numbering)
heavy: B1 heavy with D239G, G273P, K328A, R332K
light: not shown
B32: IL6R-BP178/IL6R-L (antibody, human IgG1, kappa, name in EU numbering)
heavy: B1 heavy with R332K
light: not shown
B33: IL6R-BP146/IL6R-L (antibody, human IgG1, kappa, name in EU numbering)
heavy: B1 heavy with D235E, L236Y, G273P, K328A, R332A
light: not shown
B34: IL6R-BP181/IL6R-L (antibody, human IgG1, kappa, name in EU numbering)
heavy: B1 heavy with D239G, K328A, R332K
light: not shown

Target: T3, human FcγRIa extracellular domain with C-terminal His tag (human, UniProt P12314 16-292)
T3 construct: Whole entry named; also called FcgRIa; FcgIa
Assay: SPR; IL6R-BF648/IL6R-L=100
Protocol: (§1) IL6R-L was utilized as the common antibody L chain for all of the antibodies, the antibodies were expressed and purified according to the method of Reference Example 1, and binding to each of the FcγRs (FcγRIa, FcγRIIa type H, FcγRIIa type R, FcγRIIb, and FcγRIIIa type V) was comprehensively evaluated by the method of Reference Example 2.
(§2) Relative binding activities were calculated for the results of analyzing interactions with the respective FcγRs according to the following method.

T3 sequence (P12314 16-292): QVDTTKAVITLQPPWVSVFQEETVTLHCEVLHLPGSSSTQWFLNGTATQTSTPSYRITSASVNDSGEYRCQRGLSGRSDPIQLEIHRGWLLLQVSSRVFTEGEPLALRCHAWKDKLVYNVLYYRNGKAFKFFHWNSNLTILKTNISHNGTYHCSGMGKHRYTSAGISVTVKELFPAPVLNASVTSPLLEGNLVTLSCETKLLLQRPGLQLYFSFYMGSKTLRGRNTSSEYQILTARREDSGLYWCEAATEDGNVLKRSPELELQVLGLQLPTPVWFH

Row | relative binding activity | Binder
1 | 57 | B1
2 | 97 | B2
3 | 39 | B3
4 | 109 | B4
5 | 125 | B5
6 | 34 | B6
7 | 50 | B7
8 | 50 | B8
9 | 74 | B9
10 | 33 | B10
11 | 104 | B11
12 | 102 | B12
13 | 19 | B13
14 | 95 | B14
15 | 117 | B15
16 | 43 | B16

Row | relative binding activity | Binder
17 | 128 | B17
18 | 100 | B18
19 | 33 | B19
20 | 155 | B20
21 | 72 | B21
22 | 25 | B22
23 | 113 | B23
24 | 57 | B24
25 | 110 | B25
26 | 68 | B26
27 | 74 | B27
28 | 43 | B28
29 | 68 | B29
30 | 41 | B30
31 | 91 | B31

Target: T1, human FcγRIIa type H extracellular …
Assay: SPR; IL6R-BF648/IL6R-L=100
Protocol: as §1, §2

Row | relative binding activity | Binder
32 | 359 | B1
33 | 108 | B2
34 | 621 | B3
35 | 162 | B4
36 | 145 | B5
37 | 548 | B6
38 | 224 | B7
39 | 179 | B10
40 | 224 | B11
41 | 128 | B12
42 | 158 | B13
43 | 139 | B14
44 | 135 | B15
45 | 285 | B16
46 | 253 | B19
47 | 259 | B32
48 | 207 | B20
49 | 116 | B21
50 | 166 | B22
51 | 154 | B23
52 | 279 | B24
53 | 137 | B25
54 | 344 | B26
55 | 106 | B27
56 | 186 | B28
57 | 98 | B29
58 | 151 | B30
59 | 130 | B31
60 | 203 | B33

Target: T2, human FcγRIIb extracellular domain with …
Assay: SPR; IL6R-BF648/IL6R-L=100
Protocol: as §1, §2

Row | relative binding activity | Binder
61 | 186 | B1
62 | 167 | B2
63 | 141 | B4
64 | 178 | B6
65 | 122 | B8
66 | 179 | B9
67 | 137 | B10
68 | 147 | B12
69 | 152 | B13
70 | 173 | B14
71 | 173 | B15
72 | 185 | B16
73 | 165 | B17
74 | 115 | B18
75 | 179 | B32
76 | 156 | B20
77 | 137 | B21
78 | 161 | B22
79 | 173 | B23
80 | 187 | B24
81 | 165 | B25
82 | 136 | B27
83 | 147 | B28
84 | 138 | B29
85 | 137 | B30
86 | 150 | B31
87 | 156 | B33

Target: T4, human FcγRIIIa type V extracellular domain with C-terminal His tag (human, UniProt P08637 17-208)
T4 construct: extracellular domain; also called FcgRIIIaV; FcγRIIIaV
Assay: SPR; IL6R-BF648/IL6R-L=100
Protocol: as §1, §2

T4 sequence (P08637 17-208 F176V): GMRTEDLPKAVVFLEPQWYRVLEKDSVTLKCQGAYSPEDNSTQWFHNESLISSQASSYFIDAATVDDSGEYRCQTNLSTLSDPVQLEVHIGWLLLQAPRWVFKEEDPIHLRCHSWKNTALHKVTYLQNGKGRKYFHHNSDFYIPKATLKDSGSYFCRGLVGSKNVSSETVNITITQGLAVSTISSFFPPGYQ

Row | relative binding activity | Binder
88 | 221 | B3
89 | 106 | B4
90 | 142 | B5
91 | 155 | B7
92 | 107 | B8
93 | 158 | B10
94 | 104 | B13
95 | 122 | B34
96 | 87 | B17
97 | 87 | B18
98 | 118 | B19
99 | 126 | B20
100 | 123 | B21
101 | 122 | B22
102 | 221 | B26
103 | 87 | B27
104 | 136 | B28
105 | 95 | B29
106 | 114 | B30
